Measurements as given in patent US20150239961A1.
pKd: −log10 of the molar value.

Legend:
[1] = molecular target: HIV-1 B.JRFL gp120 Env (HIV-1 B.JRFL); test: blocking assay on JRFL gp120, competitor b12
[2] = molecular target: recombinant AE.A244 Δ11 gp120 (HIV-1 AE.A244); test: SPR (BIAcore 3000), mAb captured by anti-human Ig Fc, gp120 in flow
[3] = molecular target: HIV-1 AE.A244 gp120 envelope glycoprotein (HIV-1 AE.A244); test: blocking assay on A244 gp120, competitor sCD4
[4] = molecular target: Env on the surface of HIV-1 AE.CM235-infected cells (HIV-1 AE.CM235); test: cell-based or functional assay
[5] = molecular target: recombinant AE.A244 Δ11 gp120 (HIV-1 AE.A244); test: SPR synergy assay (BIAcore 4000), CH58 immobilized on CM5 chip, mAb-gp120 complex injected
[6] = molecular target: Env on the surface of HIV-1 AE.CM235-infected cells (HIV-1 AE.CM235); test: flow cytometry, Alexa Fluor 488-CH58 with unconjugated mAb, 10 µg/ml each, AE.CM235-infected CD4+ T cells
[7] = molecular target: Env on the surface of HIV-1 AE.CM235-infected cells (HIV-1 AE.CM235); test: flow cytometry, Alexa Fluor 488-CH58 with CH90 F(ab), HIV-1-infected CD4+ T cells (FIG. 14B-E)
[8] = molecular target: Env on the surface of HIV-1 AE.92TH023-infected primary CD4+ T cells (HIV-1 AE.92TH023); test: as above
[9] = molecular target: Env on the surface of HIV-1 AE.92TH023-infected primary CD4+ T cells (HIV-1 AE.92TH023); test: flow cytometry, Alexa Fluor 488-CH58 with unconjugated mAb, 10 µg/ml each, AE.92TH023-infected CD4+ T cells
[10] = molecular target: HIV-1 B.JRFL gp120 Env (HIV-1 B.JRFL); test: blocking assay on JRFL gp120, competitor sCD4

## A32 (antibody)
[1]
  % blocking of b12 binding: 23%
[2]
  pKd: 9.15
  koff: 0.00015 s⁻¹
  kon: 223000 M⁻¹ s⁻¹
[3]
  % blocking of sCD4 binding: 29%
[4]
  ADCC EC (3 hr Luciferase ADCC): 0.003 µg/mL
  maximum % GzB activity (ADCC-CM235 assay): 16%

## A32 Fab
[4]
  inhibition of the ADCC activity mediated by 19/20 non-V3 mAbs (ADCC-CM235 assay): 73 to 100%

## CH58 (antibody)
[5]
  % increase in binding with gp120 pre-incubated with CH54, against gp120 with murine 16H3 mAb: 14%
  % increase in binding with gp120 pre-incubated with CH57, against gp120 with murine 16H3 mAb: 59%
  % increase in binding with gp120 pre-incubated with CH90, against gp120 with murine 16H3 mAb: 12%
[6]
  % increase in frequency of infected cells recognized by CH58 and in MFI in the presence of A32: < 45%
  % increase of CH58 binding in the presence of CH54: > 20%
  % increase of CH58 binding in the presence of CH57: > 25%
  % increase of CH58 binding in the presence of CH90: > 35%
[7]
  % enhancement of CH58 binding in the presence of CH90 F(ab): < 10%
[8]
  % enhancement of CH58 binding in the presence of CH90 F(ab): < 10%
[9]
  % increase in the frequency of cells recognized by CH58 in the presence of A32, against CH58 alone: > 40%
  % increase in the frequency of cells recognized by CH58 in the presence of CH57, against CH58 alone: > 40%
  % increase in the frequency of cells recognized by CH58 in the presence of CH90, against CH58 alone: > 40%
[2]
  pKd: 9.00
  koff: 0.00023 s⁻¹
  kon: 226000 M⁻¹ s⁻¹
[4]
  % Max Killing, mAb alone (Luciferase ADCC): 18.8%
  ADCC EC (3 hr Luciferase ADCC): 9.68 µg/mL
  EC, mAb alone (Luciferase ADCC): 9.13 µg/mL
  PC75, mAb alone (Luciferase ADCC): 31.4 µg/mL

## VRC-CH31 (antibody)
[1]
  % blocking of b12 binding: 70%
[10]
  % blocking of sCD4 binding: 67%
[3]
  % blocking of sCD4 binding: 97%
